Test results published in article PMC11796359, “Identification and characterization of the functional tetrameric UDP-glucose pyrophosphorylase from Klebsiella pneumoniae” (mBio, 2024).
Residue numbers refer to the chain shown, from its start. In names and notes the source's numbering stands.

B1: Klebsiella pneumoniae UDP-glucose pyrophosphorylase (galU gene product), wild type (enzyme, UniProt A6TAK9 1-300, looked up)
chain: MAALNSKVRKAVIPVAGLGTRMLPATKAIPKEMLPLVDKPLIQYVVNECIAAGITEIVLVTHSSKNSIENHFDTSFELEAMLEKRVKRQLLEEVQSICPPHVTIMQVRQGLAKGLGHAVLCAHPVVGDEPVAVILPDVILDEYESDLSRDNLAEMISRFDETGASQIMVEPVEDVTAYGVVDCKGESLKPGESVPMVGVVEKPKADVAPSNLAVVGRYVLSADIWPLLAKTPPGAGDEIQLTDAIDMLIEKETVEAYHMKGKSHDCGNKLGYMQAFVEYGIRHKTLGDDFKAWLETAVAK
notes: UDP-glucose pyrophosphorylase (galU gene product) of K. pneumoniae subsp. pneumoniae type strain DSM 30104 (ATCC 13883, NCTC 9633), cloned from genomic DNA; UniProt entry printed for the AlphaFold query; 34.6 kDa with tag; no cleavage of the tag is described; Also made from pETDuet-1 with the same oligomeric state; also called KpUGP; KpUGP wt; not shown: Strep-tagII, N-terminal, kept
B2: KpUGP D38A (enzyme)
chain: B1 chain with D38A
notes: UDP-glucose pyrophosphorylase (galU gene product) of K. pneumoniae DSM 30104; mutant of Strep-KpUGP; tag as in m1; no cleavage described
B3: KpUGP E32A (enzyme)
chain: B1 chain with E32A
notes: UDP-glucose pyrophosphorylase (galU gene product) of K. pneumoniae DSM 30104; active site mutant of Strep-KpUGP; tag as in m1; the discussion speaks only of the mutant of E32; also called E32 mutant
B4: KpUGP K10R (enzyme)
chain: B1 chain with K10R
notes: as for B2
B5: KpUGP E238R (enzyme)
chain: B1 chain with E238R
notes: UDP-glucose pyrophosphorylase (galU gene product) of K. pneumoniae DSM 30104; mutant of Strep-KpUGP that mimics R237 of KpGalF; tag as in m1; no cleavage described
B6: KpUGP D38N (enzyme)
chain: B1 chain with D38N
notes: as for B2
B7: Klebsiella pneumoniae GalF (galF gene product), wild type (natural protein, UniProt Q48447 1-298, looked up)
chain: MNMANLKAVIPVAGLGMHMLPATKAIPKEMLPIVDKPMIQYIVDEIVAAGIKEIVLVTHSSKNAVENHFDTSYELEALLEQRVKRQLLAEVQAICPPGVTIMNVRQAQPLGLGHSILCARPVVGDNPFVVVLPDIILDGGTADPLRYNLAAMIARFNETGRSQVLAKRMPGDLSEYSVIQTKEPMVAEGQVARIVEFIEKPDEPQTLDSDLMAVGRYVLSADIWAELERTEPGAWGRIQLTDAIAELAKKQSVDAMLMTGESYDCGKKMGYMQAFVTYGMRNLKEGAKFRESIKKLLA
notes: GalF (galF gene product) of K. pneumoniae subsp. pneumoniae type strain DSM 30104 (ATCC 13883, NCTC 9633), cloned from genomic DNA into MCS1 of pETDuet-1; UniProt entry printed for the AlphaFold query; 34.3 kDa with tag; no cleavage of the tag is described; also called KpGalF; KpGalF wt
B8: KpGalF M17T/H18R/S115A/S177G/R237E (natural protein)
chain: B7 chain with M17T, H18R, S115A, S177G, R237E
notes: GalF (galF gene product) of K. pneumoniae DSM 30104; mutant of His-KpGalF; also called KpGalF quintuple mutant; quintuple revertant mutant

How the values were obtained:
[1] = biological target: the molecule itself; experiment: SEC; Superose 6 Increase 10/300 GL; 50 mM Tris-HCl (pH 8.0), 300 mM NaCl, 10 mM MgCl2; oligomeric state calculated from elution volumes of proteins of known size
[2] = biological target: the molecule itself; experiment: not stated; data not shown; KpUGP in HEPES-NaOH (pH 8.0) buffer
[3] = biological target: the molecule itself; experiment: native gel or EMSA; blue native PAGE, 4.5 µg of each protein on a uniform 12% native gel, followed by in-gel activity staining
[4] = biological target: the molecule itself; experiment: SEC; Superdex 200 10/300 GL (KpUGP active site mutants); 50 mM Tris-HCl (pH 8.0), 300 mM NaCl, 10 mM MgCl2
[5] = biological target: the molecule itself; experiment: SEC; Superose 6 Increase 10/300 GL; 50 mM Tris-HCl (pH 8.0), 300 mM NaCl, 10 mM MgCl2; oligomeric state calculated from elution volumes of proteins of known size; remark: listed apart in the source

| Protein | stoichiometry N [1] | stoichiometry N [3] | stoichiometry N [5] | other results |
| --- | --- | --- | --- | --- |
| B1 | 4.5 | – | – | stoichiometry N [2]: 4 |
| B2 | 4.1 | 4 | – | – |
| B3 | – | – | – | stoichiometry N [4]: 2 |
| B4 | 4.5 | 4 | – | – |
| B5 | – | – | 3.1 | – |
| B6 | 4.2 | 4 | – | – |
| B7 | – | – | 1.9 | – |
| B8 | – | – | 1.7 | – |
